Patent US20130330802A1
Values belong to the molecule of their own block, whether it stands above or below them.

What was measured:
[1] = molecular target: mannose 6-phosphate (M6P) receptor on cultured human fibroblasts (CCD-1076SK) (human) (UniProt P11717); experiment: cell-based or functional assay
[2] = molecular target: His-tagged-hMPR9 (domain 9 of human mannose-6-phosphate receptor with C-terminal His-tag) (human) (UniProt P11717); experiment: SPR (Biacore T100), His-tagged-hMPR9 on NTA chip, rhI2S as analyte
[3] = molecular target: mannose 6-phosphate (M6P) receptor on cultured human fibroblasts (CCD-1076SK) (human), P11717; experiment: cell-based or functional assay
[4] = molecular target: His-tagged-hMPR9 (domain 9 of human mannose-6-phosphate receptor with C-terminal His-tag) (human) (UniProt P11717); experiment: SPR (Biacore T100), His-tagged-hMPR9 on NTA chip, rhI2S as analyte; average of lots 1-7
[5] = molecular target: His-tagged-hMPR9 (domain 9 of human mannose-6-phosphate receptor with C-terminal His-tag) (human) (UniProt P11717); experiment: SPR (Biacore T100), His-tagged-hMPR9 on NTA chip, rhI2S as analyte; low end of range over lots 1-7
[6] = molecular target: His-tagged-hMPR9 (domain 9 of human mannose-6-phosphate receptor with C-terminal His-tag) (human) (UniProt P11717); experiment: SPR (Biacore T100), His-tagged-hMPR9 on NTA chip, rhI2S as analyte; high end of range over lots 1-7

Sequence of mannose 6-phosphate (M6P) receptor on cultured human fibroblasts (CCD-1076SK) (human), P11717 (P11717 41-2491): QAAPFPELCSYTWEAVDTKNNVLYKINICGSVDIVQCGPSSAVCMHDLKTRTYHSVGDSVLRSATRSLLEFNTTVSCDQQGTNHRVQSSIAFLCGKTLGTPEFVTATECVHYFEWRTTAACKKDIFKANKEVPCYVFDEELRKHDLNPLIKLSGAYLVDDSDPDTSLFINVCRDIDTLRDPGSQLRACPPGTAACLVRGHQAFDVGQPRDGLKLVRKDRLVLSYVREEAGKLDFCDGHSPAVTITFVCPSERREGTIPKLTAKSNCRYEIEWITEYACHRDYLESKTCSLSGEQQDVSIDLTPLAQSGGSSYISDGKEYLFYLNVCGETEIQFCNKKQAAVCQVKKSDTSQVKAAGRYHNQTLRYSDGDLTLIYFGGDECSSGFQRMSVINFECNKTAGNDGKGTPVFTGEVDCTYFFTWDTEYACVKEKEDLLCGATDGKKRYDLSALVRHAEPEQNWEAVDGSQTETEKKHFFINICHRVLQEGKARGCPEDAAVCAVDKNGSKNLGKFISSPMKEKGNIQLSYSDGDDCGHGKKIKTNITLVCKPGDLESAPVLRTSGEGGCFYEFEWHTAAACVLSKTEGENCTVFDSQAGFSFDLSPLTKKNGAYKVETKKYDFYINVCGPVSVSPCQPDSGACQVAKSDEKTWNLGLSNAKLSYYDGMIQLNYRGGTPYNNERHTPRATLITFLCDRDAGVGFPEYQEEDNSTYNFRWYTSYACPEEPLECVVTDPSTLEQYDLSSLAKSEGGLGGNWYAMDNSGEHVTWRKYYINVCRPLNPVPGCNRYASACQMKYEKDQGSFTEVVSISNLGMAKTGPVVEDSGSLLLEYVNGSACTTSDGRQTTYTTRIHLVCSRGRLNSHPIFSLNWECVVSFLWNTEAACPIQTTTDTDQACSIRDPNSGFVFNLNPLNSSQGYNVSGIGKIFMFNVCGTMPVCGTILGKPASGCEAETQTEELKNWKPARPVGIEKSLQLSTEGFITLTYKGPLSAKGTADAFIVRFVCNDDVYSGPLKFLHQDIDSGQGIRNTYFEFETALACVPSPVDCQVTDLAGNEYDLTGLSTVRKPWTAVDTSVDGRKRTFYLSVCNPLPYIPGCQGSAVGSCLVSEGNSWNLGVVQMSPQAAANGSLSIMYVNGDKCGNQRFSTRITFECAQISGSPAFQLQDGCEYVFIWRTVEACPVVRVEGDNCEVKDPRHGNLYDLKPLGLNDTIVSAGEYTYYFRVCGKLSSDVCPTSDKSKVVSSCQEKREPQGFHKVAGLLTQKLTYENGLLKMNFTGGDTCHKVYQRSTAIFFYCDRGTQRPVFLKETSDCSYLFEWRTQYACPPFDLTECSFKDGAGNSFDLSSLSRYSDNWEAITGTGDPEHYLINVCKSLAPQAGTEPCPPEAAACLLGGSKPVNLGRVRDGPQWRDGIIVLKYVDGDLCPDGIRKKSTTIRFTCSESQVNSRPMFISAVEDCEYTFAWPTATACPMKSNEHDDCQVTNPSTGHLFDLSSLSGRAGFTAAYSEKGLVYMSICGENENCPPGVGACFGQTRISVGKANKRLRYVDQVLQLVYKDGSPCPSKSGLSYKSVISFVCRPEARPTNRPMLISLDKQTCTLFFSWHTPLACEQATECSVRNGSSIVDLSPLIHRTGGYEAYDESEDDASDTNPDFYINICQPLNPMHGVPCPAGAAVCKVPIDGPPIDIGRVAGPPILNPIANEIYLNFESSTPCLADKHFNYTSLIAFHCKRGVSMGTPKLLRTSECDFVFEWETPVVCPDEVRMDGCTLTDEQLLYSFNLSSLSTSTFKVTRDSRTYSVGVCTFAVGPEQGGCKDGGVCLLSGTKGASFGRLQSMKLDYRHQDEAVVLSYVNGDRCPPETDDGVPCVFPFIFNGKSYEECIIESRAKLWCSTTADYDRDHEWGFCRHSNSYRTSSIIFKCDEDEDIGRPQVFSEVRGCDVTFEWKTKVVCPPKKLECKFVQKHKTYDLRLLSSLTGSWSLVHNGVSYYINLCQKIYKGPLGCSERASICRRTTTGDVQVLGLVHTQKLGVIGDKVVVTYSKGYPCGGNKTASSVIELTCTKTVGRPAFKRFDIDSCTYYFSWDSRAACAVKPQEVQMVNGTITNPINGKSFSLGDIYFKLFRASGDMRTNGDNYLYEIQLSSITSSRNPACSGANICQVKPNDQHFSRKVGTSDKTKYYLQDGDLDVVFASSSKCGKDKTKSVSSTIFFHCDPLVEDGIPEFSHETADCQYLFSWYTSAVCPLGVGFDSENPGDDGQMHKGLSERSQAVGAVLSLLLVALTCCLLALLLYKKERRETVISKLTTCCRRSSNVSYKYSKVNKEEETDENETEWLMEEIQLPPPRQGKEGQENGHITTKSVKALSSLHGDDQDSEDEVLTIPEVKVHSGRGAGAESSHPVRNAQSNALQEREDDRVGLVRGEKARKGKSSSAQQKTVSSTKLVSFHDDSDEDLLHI

EC50 of cellular uptake (human fibroblasts, 18 hrs, rhI2S in lysate by ELISA) [1]: 1.46 µg/mL
Kd [2]: 3.32 nM
Molecule: commercially-available medicinal rhI2S (from UniProt P22304 26-550) (enzyme)

EC50 of cellular uptake (human fibroblasts, 18 hrs, rhI2S in lysate by ELISA) [3]: 0.452 µg/mL
B1: recombinant human iduronate 2-sulfatase (rhI2S) of the present invention (Lot Nos. 1-7), P22304 26-550 (enzyme)
chain: SETQANSTTDALNVLLIIVDDLRPSLGCYGDKLVRSPNIDQLASHSLLFQNAFAQQAVCAPSRVSFLTGRRPDTTRLYDFNSYWRVHAGNFSTIPQYFKENGYVTMSVGKVFHPGISSNHTDDSPYSWSFPPYHPSSEKYENTKTCRGPDGELHANLLCPVDVLDVPEGTLPDKQSTEQAIQLLEKMKTSASPFFLAVGYHKPHIPFRYPKEFQKLYPLENITLAPDPEVPDGLPPVAYNPWMDIRQREDVQALNISVPYGPIPVDFQRKIRQSYFASVSYLDTQVGRLLSALDDLQLANSTIIAFTSDHGWALGEHGEWAKYSNFDVATHVPLIFYVPGRTASLPEAGEKLFPYLDPFDSASQLMEPGRQSMDLVELVSLFPTLAGLAGLQVPPRCPVPSFHVELCREGKNLLKHFRFRDLEEDPYLPGNPRELIAYSQYPRPSDIPQWNSDKPSLKDIKIMGYSIRTIDYRYTVWVGFNPDEFLANFSDIHAGELYFVDSDPLQDHNMYNDSQGGDLFQLLMP
modifications: here or on the partner: glycosylated; linked oligosaccharide chains containing mannose-6-phosphate residues, 3.74-5.38 mol/mol (average 4.37 mol/mol)

Kd [4]: 1.04 nM
Kd [5]: 0.758 nM
Kd [6]: 1.23 nM
B2: recombinant human iduronate 2-sulfatase (rhI2S) of the present invention (Lot Nos. 1-7) (enzyme)
chain: B1 chain
modifications: glycosylated; linked oligosaccharide chains containing mannose-6-phosphate residues, 3.74-5.38 mol/mol (average 4.37 mol/mol)
